The values below come from PMC10977697 (PLOS ONE, 2024).

The target in one assay is T1, PCSK9 (human, UniProt Q8NBP7 31-692, biotin on lysines (Sulfo-NHS-LC-biotin)).
T1 construct: also called PCSK9FL; hPCSK9 FL
Nature of the assay: SPR. The following applies: both partners purified.

Assay [1] concerns the target T2, PCSK9ΔCRD (PCSK9 lacking the C-terminal Cys-rich domain CRD) (human, UniProt Q8NBP7 31-452, biotin on lysines (Sulfo-NHS-LC-biotin)).
T2 construct: also called PCSK9DCRD; PCSK9dCRDTEV
As to the kind of experiment: ELISA. The following applies: one partner purified. In general terms: In an ELISA, binding on a coated surface is turned into a signal by an enzyme label.

T2 sequence (Q8NBP7 31-452, stated change not applied): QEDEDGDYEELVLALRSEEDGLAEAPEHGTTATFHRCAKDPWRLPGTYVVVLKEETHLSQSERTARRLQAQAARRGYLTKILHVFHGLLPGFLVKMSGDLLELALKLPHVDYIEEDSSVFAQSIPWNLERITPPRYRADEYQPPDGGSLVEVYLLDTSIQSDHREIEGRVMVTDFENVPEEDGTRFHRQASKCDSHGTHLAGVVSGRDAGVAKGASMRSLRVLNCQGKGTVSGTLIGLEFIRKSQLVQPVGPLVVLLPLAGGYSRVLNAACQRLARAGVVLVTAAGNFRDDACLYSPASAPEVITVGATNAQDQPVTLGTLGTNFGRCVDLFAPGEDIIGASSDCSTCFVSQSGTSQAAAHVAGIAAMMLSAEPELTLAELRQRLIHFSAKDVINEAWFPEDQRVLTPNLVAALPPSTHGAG
T1 sequence (Q8NBP7 31-692): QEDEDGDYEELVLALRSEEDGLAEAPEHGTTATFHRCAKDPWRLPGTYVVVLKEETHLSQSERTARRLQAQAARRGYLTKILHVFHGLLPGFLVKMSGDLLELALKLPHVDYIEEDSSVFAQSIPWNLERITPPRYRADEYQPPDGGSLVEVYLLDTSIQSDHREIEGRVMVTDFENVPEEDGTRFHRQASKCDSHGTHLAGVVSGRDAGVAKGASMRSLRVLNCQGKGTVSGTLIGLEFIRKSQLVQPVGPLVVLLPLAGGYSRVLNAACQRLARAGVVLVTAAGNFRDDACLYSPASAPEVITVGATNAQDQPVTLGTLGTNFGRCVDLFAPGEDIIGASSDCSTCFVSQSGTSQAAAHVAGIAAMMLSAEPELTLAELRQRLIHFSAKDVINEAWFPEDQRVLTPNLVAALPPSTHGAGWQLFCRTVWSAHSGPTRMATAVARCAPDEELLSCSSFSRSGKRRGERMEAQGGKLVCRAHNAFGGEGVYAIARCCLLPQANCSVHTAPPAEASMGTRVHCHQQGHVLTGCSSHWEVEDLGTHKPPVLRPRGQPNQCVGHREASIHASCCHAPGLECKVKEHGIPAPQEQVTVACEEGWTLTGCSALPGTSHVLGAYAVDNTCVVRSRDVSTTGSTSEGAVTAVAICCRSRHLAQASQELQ

A word on the Kd: it is the free concentration of one partner at which half of the binding sites on the other are occupied at equilibrium, for simple one-to-one binding. A higher Kd goes with weaker binding. ECKGKGAKCSYYMGIDKGYVNYCCTGSCRSGKC (designed binder, Conotoxin-MVIIA scaffold) [PCSK9_CnTx1] gave a dissociation constant (Kd) in the assay with PCSK9 of 4.5 µM.

Take ECKGKGAKCSYYMGIDKGYVNYCCTGSCRSGKC (designed binder, Conotoxin-MVIIA scaffold) [PCSK9_CnTx1 displayed on M13 phage]: in assay [1], the ELISA was 2 and the s/n Ratio came out at 29.7.
